Assay results from patent publication US20140199706A1.
Changes are numbered by the printed parent chain. Names may count otherwise. Where two headings read alike, the source gives them in different places.

Tests used:
yeast proteasome (26S) [1] = system: yeast proteasome (26S)
[2] = target: yeast proteasome (26S) (S. cerevisiae (yeast)); assay: cell-based or functional assay
yeast proteasome (26S) [3] = target: yeast proteasome (26S); remark: listed apart in the source
[4] = target: proteasome regulatory particle (RP) purified from a ubp6Δ strain

Molecule: Ubp6-ublΔ
- cyclin B degradation assay (yeast proteasome (26S) [1]): Deletion of the Ubl domain rendered Ubp6 non-inhibitory in the cyclin B degradation assay (FIG. 4B)

B1: Ubp6 (protein)
chain: MSGETFEFNIRHSGKVYPITLSTDATSADLKSKAEELTQVPSARQKYMVKGGLSGEESIKIYPLIKPGSTVMLLGTPDANLISKPAKKNNFIEDLAPEQQVQQFAQLPVGFKNMGNTCYLNATLQALYRVNDLRDMILNYNPSQGVSNSGAQDEEIHKQIVIEMKRCFENLQNKSFKSVLPIVLLNTLRKCYPQFAERDSQGGFYKQQDAEELFTQLFHSMSIVFGDKFSEDFRIQFKTTIKDTANDNDITVKENESDSKLQCHISGTTNFMRNGLLEGLNEKIEKRSDLTGANSIYSVEKKISRLPKFLTVQYVRFFWKRSTNKKSKILRKVVFPFQLDVADMLTPEYAAEKVKVRDELRKVEKEKNEKEREIKRRKFDPSSSENVMTPREQYETQVALNESEKDQWLEEYKKHFPPNLEKGENPSCVYNLIGVITHQGANSESGHYQAFIRDELDENKWYKFNDDKVSVVEKEKIESLAGGGESDSALILMYKGFGL
- inhibition of degradation of ub-cyclin B (quantitative mass spectrometry, 20-minute incubation) [2]: 70%
- cyclin B degradation by ubp6Δ proteasomes after add-back of recombinant Ubp6 (yeast proteasome (26S) [3]): a marked inhibition of cyclin B degradation (FIG. 1F) was observed
- deubiquitination of cyclin B (yeast proteasome (26S) [3]): when Ubp6 is incubated in the presence of cyclin B, but without proteasomes, no deubiquitination of cyclin B is observed (FIG. 4D)
- ubiquitin chain shortening of ub-cyclin B conjugates [4]: addition of purified Ubp6 to RP resulted in chain shortening, although to a lesser extent than with 26S proteasomes (FIG. 6A)

B2: Ubp6-C118A (protein)
chain: B1 chain with C118A
- inhibition of degradation of ub-cyclin B (quantitative mass spectrometry, 20-minute incubation) [2]: 70%
- cyclin B degradation assay (yeast proteasome (26S) [3]): a catalytically inactive point mutant of Ubp6 (Ubp6-C118A) proved competent for inhibition (FIG. 4B)
